B1: NAP1-binding protein (Saccharomyces cerevisiae), P52919 (parent)
chain: MLKSVQGLWKDFFGIRDDGRKREYGSLDEVRKRSALRSRRKQMRPTGKSVLKRPRKVTDRKTEEKIRTNRRKTPKRRLTKIFQTIRDVFSNDNENMSKMQNVCGDMTRILKKRSQGRPSYMDTDTAKSRILRSDAFKRKISELKYNKQRISELRSGSSDGSSGKDRNQSLYLDREILLQRQIKKRDEKIKALESKLQSLQEALNYSNEKYRILEDLLDSSNIHPSYTKSRRTMSNLARENDEIKPLKIDLSPSPIRRTNSLFTSSPMKTYNRDGNIPEMQPLQENISPACPTPPYRSRETEKEDETLSPISVDFSSYLS

Variants of: B1
Details: with nic96_yeast NIC96, P34077
Chain of nic96_yeast NIC96, P34077 (P34077 whole entry): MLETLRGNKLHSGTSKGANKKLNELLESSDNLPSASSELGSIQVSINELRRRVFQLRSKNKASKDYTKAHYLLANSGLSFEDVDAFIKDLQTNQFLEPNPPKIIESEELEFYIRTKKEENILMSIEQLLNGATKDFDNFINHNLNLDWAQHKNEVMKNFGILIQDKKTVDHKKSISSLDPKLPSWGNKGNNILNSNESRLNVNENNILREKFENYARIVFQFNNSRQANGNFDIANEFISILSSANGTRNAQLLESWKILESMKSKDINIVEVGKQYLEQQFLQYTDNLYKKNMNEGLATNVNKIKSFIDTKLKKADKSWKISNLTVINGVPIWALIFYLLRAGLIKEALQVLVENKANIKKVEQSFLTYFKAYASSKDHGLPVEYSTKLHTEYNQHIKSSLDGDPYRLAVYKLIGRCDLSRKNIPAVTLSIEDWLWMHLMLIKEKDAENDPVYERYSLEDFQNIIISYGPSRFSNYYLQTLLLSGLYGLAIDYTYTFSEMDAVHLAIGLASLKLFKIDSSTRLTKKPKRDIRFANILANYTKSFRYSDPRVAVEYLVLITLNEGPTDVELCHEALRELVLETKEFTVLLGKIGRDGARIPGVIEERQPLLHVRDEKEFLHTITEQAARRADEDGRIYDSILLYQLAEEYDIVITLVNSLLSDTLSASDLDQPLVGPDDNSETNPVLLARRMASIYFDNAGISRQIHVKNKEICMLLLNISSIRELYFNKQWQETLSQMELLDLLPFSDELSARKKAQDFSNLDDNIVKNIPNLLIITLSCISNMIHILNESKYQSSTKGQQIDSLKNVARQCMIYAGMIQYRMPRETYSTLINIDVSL

Effect of a mutation on the interaction, disrupting interaction:
W9A
L2A
V5A
F13A
F12A

Source: IntAct's records for PubMed 21785410
